Assay results from patent US20220389379A1, “PRIMARY BREAST EPITHELIAL CELL CULTURE MEDIUM, CULTURE METHOD AND USE THEREOF” (PRECEDO PHARMACEUTICALS CO., LTD, priority 2019, published 2022).

B1: Fibroblast growth factor 7: fibroblast growth factor 7 (FGF7), medium additive (protein, UniProt P21781 32-194, looked up)
Fibroblast growth factor 7: CNDMTPEQMATNVNCSSPERHTRSYDYMEGGDIRVRRLFCRTQWYLRIDKRGKVKGTQEMKNNYNIMEIRTVAVGIVAIKGVESEFYLAMNKEGKLYAKKECNEDCNFKELILENHYNTYASAKWTHNGGEMFVALNQKGIPVRGKKTKKEQKTAHFLPMAIT
B2: R-spondin3: R-spondin family protein, medium additive (protein, UniProt Q9BXY4 22-272, looked up)
R-spondin-3: QNASRGRRQRRMHPNVSQGCQGGCATCSDYNGCLSCKPRLFFALERIGMKQIGVCLSSCPSGYYGTRYPDINKCTKCKADCDTCFNKNFCTKCKSGFYLHLGKCLDNCPEGLEANNHTMECVSIVHCEVSEWNPWSPCTKKGKTCGFKRGTETRVREIIQHPSAKGNLCPPTNETRKCTVQRKKCQKGERGKKGRERKRKKPNKGESKEAIPDSKSLESSKEIPEQRENKQQQKKRKVQDKQKSVSVSTVH
B3: Amphiregulin: human amphiregulin (R&D Systems), medium additive (protein, UniProt P15514 101-187, looked up)
Amphiregulin: SVRVEQVVKPPQNKTESENTSDKPKRKKKGGKNGKNRRNRKKKNPCNAEFQNFCIHGECKYIEHLEAVTCKCQQEYFGERCGEKSMK
B4: Noggin: medium additive (R&D) (protein, UniProt Q13253 28-232, looked up)
Noggin: QHYLHIRPAPSDNLPLVDLIEHPDPIFDPKEKDLNETLLRSLLGGHYDPGFMATSPPEDRPGGGGGAAGGAEDLAELDQLLRQRPSGAMPSEIKGLEFSEGLAQGKKQRLSKKLRRKLQMWLWSQTFCPVLYAWNDLGSRFWPRYVKVGSCFSKRSCSVPEGMVCKPSKSVHLTVLRWRCQRRGGQRCGWIPIQYPIISECKCSC
B5: Interleukin 10: medium additive (R&D) (protein, UniProt P22301 19-178, looked up)
Interleukin-10: SPGQGTQSENSCTHFPGNLPNMLRDLRDAFSRVKTFFQMKDQLDNLLLKESLLEDFKGYLGCQALSEMIQFYLEEVMPQAENQDPDIKAHVNSLGENLKTLRLRLRRCHRFLPCENKSKAVEQVKNAFNKLQEKGIYKAMSEFDIFINYIEAYMTMKIRN
B6: Fibroblast growth factor 10: fibroblast growth factor 10 (FGF10), medium additive (protein, UniProt O15520 38-208, looked up)
Fibroblast growth factor 10: QALGQDMVSPEATNSSSSSFSSPSSAGRHVRSYNHLQGDVRWRKLFSFTKYFLKIEKNGKVSGTKKENCPYSILEITSVEIGVVAVKAINSNYYLAMNKKGKLYGSKEFNNDCKLKERIEENGYNTYASFNWQHNGRQMYVALNGKGAPRRGQKTRRKNTSAHFLPMVVHS
B7: R-spondin1: R-spondin family protein, medium additive (protein, UniProt Q2MKA7 21-263, looked up)
R-spondin-1: SRGIKGKRQRRISAEGSQACAKGCELCSEVNGCLKCSPKLFILLERNDIRQVGVCLPSCPPGYFDARNPDMNKCIKCKIEHCEACFSHNFCTKCKEGLYLHKGRCYPACPEGSSAANGTMECSSPAQCEMSEWSPWGPCSKKQQLCGFRRGSEERTRRVLHAPVGDHAACSDTKETRRCTVRRVPCPEGQKRRKGGQGRRENANRNLARKESKEAGAGSRRRKGQQQQQQQGTVGPLTSAGPA

System: primary breast tumor epithelial cells isolated from breast cancer tissues (HMFL-XN1, HMFL-XN3, HMFL-XN4, HMFL-XN6, HMFL-XN8)
Assay: Optimization of primary breast epithelial cell culture medium: cell count after culture with medium additives
Format: cell-based, human
Set-up: key: +: compared with the basis medium, the medium added with the additive(s) can promote the proliferation of primary breast tumor epithelial cells isolated from at least three cases of breast cancer tissues; −: the medium added with the additive(s) has the effect of inhibiting proliferation of primary breast tumor epithelial cells isolated from at least two cases of breast cancer tissues; ○: the medium added with this additive(s) has no significant effect on the proliferation of primary breast tumor epithelial cells isolated from at least three cases of breast cancer tissues
Settings: additive at the concentration given in Table 1 added to basis medium; cell count after 10 days of culture, compared with basis medium; five breast cancer samples
Method: Matrigel (registered trademark) (manufactured by BD Biosciences) was diluted at 1:100 in serum-free DMEM/F12 medium to prepare an extracellular matrix dilution, which was added to a 48-well culture plate with 200 μl/well to completely cover the bottom of the wells of the culture plate. The resultant was let stand for 1 hour in a 37° C. incubator. After 1 hour, the extracellular matrix dilution was removed to provide a Matrigel-coated plate.
First, a basis medium was prepared. To a commercial DMEM/F-12 medium, GlutaMAX-I (manufactured by Thermo Fisher SCIENTIFIC) was added at the specified concentration (1:100 dilution), human insulin (manufactured by Sigma) was added at a final concentration of 10 μg/ml, ROCK kinase inhibitor Y27632 (manufactured by Sigma) was added at a final concentration of 10 μM, and penicillin-streptomycin (manufactured by Thermo Fisher SCIENTIFIC) was added at a 1:100 dilution ratio, which provides the basis medium.
Next, different types of additives (as shown in Table 1) were added to the basis medium to prepare breast epithelial cell culture mediums containing different supplementary components, and the mediums with different components were added at a volume of 500 μl/well to 48-well plates which were coated with extracellular matrix gel (Matrigel). Breast tumor cells (HMFL-XN1) isolated from breast cancer tissue in step (1) of this Example were inoculated in a Matrigel-coated 48-well culture plate at a cell density of 1×10^4 cells/well, and equal numbers of freshly isolated breast tumor cells (HMFL-XN1) were cultured under different medium formulations at 37° C., under 5% CO2 concentration and 20% oxygen concentration. The medium was renewed every 4 days after the start of the culture. After 10 days of culture, cell counts were performed. As an experiment control, the basis medium without any additives was used. Breast tumor cells isolated from the remaining four breast cancer tissue samples were cultured and counted in the same manner as above.

Question: With B1 as the molecule, how does the Degree of cell read?
Answer: Its Degree of cell is “+”.

Question: B2 was tested. Which Degree of cell did it give?
Answer: The Degree of cell was “○”.

Question: B3 was tested. Which Degree of cell did it give?
Answer: The Degree of cell was “+”.

Question: With B4 as the molecule, how does the Degree of cell read?
Answer: The Degree of cell was “○”.

Question: How did the Degree of cell turn out when B5 was run?
Answer: The Degree of cell was “○”.

Question: For B6, which Degree of cell is on record?
Answer: The Degree of cell was “+”.

Question: B7 was tested. Which Degree of cell did it give?
Answer: The Degree of cell was “○”.
